Legend:
HeLa Kyoto [1] = assay: solubility in G1/S (NP-40 vs SDS abundance) (log2 ratio); higher = more soluble; conditions: cell cycle stage: G1/S
HeLa Kyoto [2] = assay: solubility change mitosis vs G1/S (difference of NP-40 vs SDS log2 ratios) (log2 ratio difference); higher = more soluble in mitosis
HeLa Kyoto [3] = assay: melting temperature (median over replicates), in situ; higher = more thermally stable
HeLa Kyoto [4] = assay: thermal stability score vs G1/S (z-score of summed log2 fold changes over temperatures); higher = more thermally stable than in G1/S
[5] = cell cycle stage: early G1 (4.5 h after nocodazole release)
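Wherever melting temperature (median over replicates), in situ is given: HeLa Kyoto cells synchronized by double thymidine or nocodazole block, proteins quantified by TMT10plex mass spectrometry, three independent biological replicates.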
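Wherever solubility change mitosis vs G1/S (difference of NP-40 vs SDS log2 ratios) is given: synchronized HeLa Kyoto cells (double thymidine block for G1/S, nocodazole release for mitosis), protein amounts in NP-40 versus SDS lysates quantified by mass spectrometry, three biological replicates.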
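Wherever solubility in G1/S (NP-40 vs SDS abundance) is given: HeLa Kyoto cells arrested at G1/S by double thymidine block, proteins quantified by TMT10plex mass spectrometry in mild NP-40 versus SDS extracts, three biological replicates.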
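Wherever thermal stability score vs G1/S (z-score of summed log2 fold changes over temperatures) is given: synchronized HeLa Kyoto cells, proteins quantified by TMT10plex mass spectrometry, three biological replicates, mitosis taken 0.5 h after nocodazole release, G1/S directly after double thymidine block.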

Sequence | solubility in G1/S (log2) (HeLa Kyoto [1]) | solubility change mitosis (log2) (HeLa Kyoto [2]) | melting temperature (HeLa Kyoto [3]; cell cycle stage: G1/S) | melting temperature (HeLa Kyoto [3]; cell cycle stage: mitosis) | thermal stability score (HeLa Kyoto [4]; [5]) | thermal stability score (HeLa Kyoto [4]; cell cycle stage: mitosis)
MSSVAVLTQESFAEHRSGLVPQQIKVATLNSEEESDPPTYKDAFPPLPEKAACLESAQEPAGAWGNKIRPIKASVITQVFHVPLEERKYKDMNQFGEGEQAKICLEIMQRTGAHLELSLAKDQGLSIMVSGKLDAVMKARKDIVARLQTQASATVAIPKEHHRFVIGKNGEKLQDLELKTATKIQIPRPDDPSNQIKITGTKEGIEKARHEVLLISAEQDKRAVERLEVEKAFHPFIAGPYNRLVGEIMQETGTRINIPPPSVNRTEIVFTGEKEQLAQAVARIKKIYEEKKKKTTTIAVEVKKSQHKYVIGPKGNSLQEILERTGVSVEIPPSDSISETVILRGEPEKLGQALTEVYAKANSFTVSSVAAPSWLHRFIIGKKGQNLAKITQQMPKVHIEFTEGEDKITLEGPTEDVNVAQEQIEGMVKDLINRMDYVEINIDHKFHRHLIGKSGANINRIKDQYKVSVRIPPDSEKSNLIRIEGDPQGVQQAKRELLELASRMENERTKDLIIEQRFHRTIIGQKGERIREIRDKFPEVIINFPDPAQKSDIVQLRGPKNEVEKCTKYMQKMVADLVENSYSISVPIFKQFHKNIIGKGGANIKKIREESNTKIDLPAENSNSETIIITGKRANCEAARSRILSIQKDLANIAEVEVSIPAKLHNSLIGTKGRLIRSIMEECGGVHIHFPVEGSGSDTVVIRGPSSDVEKAKKQLLHLAEEKQTKSFTVDIRAKPEYHKFLIGKGGGKIRKVRDSTGARVIFPAAEDKDQDLITIIGKEDAVREAQKELEALIQNLDNVVEDSMLVDPKHHRHFVIRRGQVLREIAEEYGGVMVSFPRSGTQSDKVTLKGAKDCVEAAKKRIQEIIEDLEAQVTLECAIPQKFHRSVMGPKGSRIQQITRDFSVQIKFPDREENAVHSTEPVVQENGDEAGEGREAKDCDPGSPRRCDIIIISGRKEKCEAAKEALEALVPVTIEVEVPFDLHRYVIGQKGSGIRKMMDEFEVNIHVPAPELQSDIIAITGLAANLDRAKAGLLERVKELQAEQEDRALRSFKLSVTVDPKYHPKIIGRKGAVITQIRLEHDVNIQFPDKDDGNQPQDQITITGYEKNTEAARDAILRIVGELEQMVSEDVPLDHRVHARIIGARGKAIRKIMDEFKVDIRFPQSGAPDPNCVTVTGLPENVEEAIDHILNLEEEYLADVVDSEALQVYMKPPAHEEAKAPSRGFVVRDAPWTASSSEKAPDMSSSEEFPSFGAQVAPKTLPWGPKR [HDLBP] | 0.183 | -0.084 | 46.8 °C | 47.6 °C | 1.14 | 3.41
MKVHMHTKFCLICLLTFIFHHCNHCHEEHDHGPEALHRQHRGMTELEPSKFSKQAAENEKKYYIEKLFERYGENGRLSFFGLEKLLTNLGLGERKVVEINHEDLGHDHVSHLDILAVQEGKHFHSHNHQHSHNHLNSENQTVTSVSTKRNHKCDPEKETVEVSVKSDDKHMHDHNHRLRHHHRLHHHLDHNNTHHFHNDSITPSERGEPSNEPSTETNKTQEQSDVKLPKGKRKKKGRKSNENSEVITPGFPPNHDQGEQYEHNRVHKPDRVHNPGHSHVHLPERNGHDPGRGHQDLDPDNEGELRHTRKREAPHVKNNAIISLRKDLNEDDHHHECLNVTQLLKYYGHGANSPISTDLFTYLCPALLYQIDSRLCIEHFDKLLVEDINKDKNLVPEDEANIGASAWICGIISITVISLLSLLGVILVPIINQGCFKFLLTFLVALAVGTMSGDALLHLLPHSQGGHDHSHQHAHGHGHSHGHESNKFLEEYDAVLKGLVALGGIYLLFIIEHCIRMFKHYKQQRGKQKWFMKQNTEESTIGRKLSDHKLNNTPDSDWLQLKPLAGTDDSVVSEDRLNETELTDLEGQQESPPKNYLCIEEEKIIDHSHSDGLHTIHEHDLHAAAHNHHGENKTVLRKHNHQWHHKHSHHSHGPCHSGSDLKETGIANIAWMVIMGDGIHNFSDGLAIGAAFSAGLTGGISTSIAVFCHELPHELGDFAVLLKAGMTVKQAIVYNLLSAMMAYIGMLIGTAVGQYANNITLWIFAVTAGMFLYVALVDMLPEMLHGDGDNEEHGFCPVGQFILQNLGLLFGFAIMLVIALYEDKIVFDIQF [SLC39A10] | -0.0606 | -0.0208 | 59.3 °C | 59 °C | -2.73 | -0.381
MSLSNKLTLDKLDVKGKRVVMRVDFNVPMKNNQITNNQRIKAAVPSIKFCLDNGAKSVVLMSHLGRPDGVPMPDKYSLEPVAVELKSLLGKDVLFLKDCVGPEVEKACANPAAGSVILLENLRFHVEEEGKGKDASGNKVKAEPAKIEAFRASLSKLGDVYVNDAFGTAHRAHSSMVGVNLPQKAGGFLMKKELNYFAKALESPERPFLAILGGAKVADKIQLINNMLDKVNEMIIGGGMAFTFLKVLNNMEIGTSLFDEEGAKIVKDLMSKAEKNGVKITLPVDFVTADKFDENAKTGQATVASGIPAGWMGLDCGPESSKKYAEAVTRAKQIVWNGPVGVFEWEAFARGTKALMDEVVKATSRGCITIIGGGDTATCCAKWNTEDKVSHVSTGGGASLELLEGKVLPGVDALSNI [PGK1] | 0.376 | -0.0583 | 53.8 °C | 53.9 °C | 1.07 | 0.993
MAAGGDHGSPDSYRSPLASRYASPEMCFVFSDRYKFRTWRQLWLWLAEAEQTLGLPITDEQIQEMKSNLENIDFKMAAEEEKRLRHDVMAHVHTFGHCCPKAAGIIHLGATSCYVGDNTDLIILRNALDLLLPKLARVISRLADFAKERASLPTLGFTHFQPAQLTTVGKRCCLWIQDLCMDLQNLKRVRDDLRFRGVKGTTGTQASFLQLFEGDDHKVEQLDKMVTEKAGFKRAFIITGQTYTRKVDIEVLSVLASLGASVHKICTDIRLLANLKEMEEPFEKQQIGSSAMPYKRNPMRSERCCSLARHLMTLVMDPLQTASVQWFERTLDDSANRRICLAEAFLTADTILNTLQNISEGLVVYPKVIERRIRQELPFMATENIIMAMVKAGGSRQDCHEKIRVLSQQAASVVKQEGGDNDLIERIQVDAYFSPIHSQLDHLLDPSSFTGRASQQVQRFLEEEVYPLLKPYESVMKVKAELCL [ADSL] | 0.108 | -0.138 | 57.2 °C | 57.8 °C | -1.75 | -1.49
MLGKGVVGGGGGTKAPKPSFVSYVRPEEIHTNEKEVTEKEVTLHLLPGEQLLCEASTVLKYVQEDSCQHGVYGRLVCTDFKIAFLGDDESALDNDETQFKNKVIGENDITLHCVDQIYGVFDEKKKTLFGQLKKYPEKLIIHCKDLRVFQFCLRYTKEEEVKRIVSGIIHHTQAPKLLKRLFLFSYATAAQNNTVTDPKNHTVMFDTLKDWCWELERTKGNMKYKAVSVNEGYKVCERLPAYFVVPTPLPEENVQRFQGHGIPIWCWSCHNGSALLKMSALPKEQDDGILQIQKSFLDGIYKTIHRPPYEIVKTEDLSSNFLSLQEIQTAYSKFKQLFLIDNSTEFWDTDIKWFSLLESSSWLDIIRRCLKKAIEITECMEAQNMNVLLLEENASDLCCLISSLVQLMMDPHCRTRIGFQSLIQKEWVMGGHCFLDRCNHLRQNDKEEVPVFLLFLDCVWQLVHQHPPAFEFTETYLTVLSDSLYIPIFSTFFFNSPHQKDTNMGREGQDTQSKPLNLLTVWDWSVQFEPKAQTLLKNPLYVEKPKLDKGQRKGMRFKHQRQLSLPLTQSKSSPKRGFFREETDHLIKNLLGKRISKLINSSDELQDNFREFYDSWHSKSTDYHGLLLPHIEGPEIKVWAQRYLRWIPEAQILGGGQVATLSKLLEMMEEVQSLQEKIDERHHSQQAPQAEAPCLLRNSARLSSLFPFALLQRHSSKPVLPTSGWKALGDEDDLAKREDEFVDLGDV [MTMR12] | -0.0977 | -0.11 | 56.1 °C | 56 °C | -0.744 | -0.447
MKIFCSRANPTTGSVEWLEEDEHYDYHQEIARSSYADMLHDKDRNVKYYQGIRAAVSRVKDRGQKALVLDIGTGTGLLSMMAVTAGADFCYAIEVFKPMADAAVKIVEKNGFSDKIKVINKHSTEVTVGPEGDMPCRANILVTELFDTELIGEGALPSYEHAHRHLVEENCEAVPHRATVYAQLVESGRMWSWNKLFPIHVQTSLGEQVIVPPVDVESCPGAPSVCDIQLNQVSPADFTVLSDVLPMFSIDFSKQVSSSAACHSRRFEPLTSGRAQVVLSWWDIEMDPEGKIKCTMAPFWAHSDPEEMQWRDHWMQCVYFLPQEEPVVQGSALYLVAHHDDYCVWYSLQRTSPEKNERVRQMRPVCDCQAHLLWNRPRFGEINDQDRTDRYVQALRTVLKPDSVCLCVSDGSLLSVLAHHLGVEQVFTVESSAASHKLLRKIFKANHLEDKINIIEKRPELLTNEDLQGRKVSLLLGEPFFTTSLLPWHNLYFWYVRTAVDQHLGPGAMVMPQAASLHAVVVEFRDLWRIRSPCGDCEGFDVHIMDDMIKRALDFRESREAEPHPLWEYPCRSLSEPWQILTFDFQQPVPLQPLCAEGTVELRRPGQSHAAVLWMEYHLTPECTLSTGLLEPADPEGGCCWNPHCKQAVYFFSPAPDPRALLGGPRTVSYAVEFHPDTGDIIMEFRHADTPD [PRMT7] | -0.014 | -0.0142 | 49.5 °C | 51 °C | 0.131 | 1.01

From the supplement of paper PMC5998384
